Test system: MS2 coat protein
Test: apparent KD of MS2 coat protein; designed switch direction (-1 OFF switch, 1 ON switch): -1; higher = weaker reporter binding
How it was run: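 Designed RNA switches with common flanks were made on Illumina chips by stalled E. coli RNA polymerase. Titration with SNAP-549-labelled MS2 coat protein doubled from 0.7 or 1.5 nM up to 3 µM. Apparent KD is each design's median over clusters after curve-fitting normalised fluorescence.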

[1] = input ligand: microRNA oligo, concentration not stated
[2] = Eterna round: R95, input ligand: microRNA oligo, concentration not stated
[3] = Eterna round: R95, input ligand: FMN 200 uM
[4] = Eterna round: R95, input ligand: none

Sequence	apparent KD of MS2 coat protein (input ligand: FMN 200 uM)	apparent KD of MS2 coat protein (input ligand: none)	apparent KD of MS2 coat protein [2]	also measured
CUGUGCUGACGGAGAUCCAACAUGAGGAUCACCCAUGUCUCAAAAGCUUUUUGCUCGUCUUAUCCUCCUCAGUACAC [Mat - Sensor, turn-off var - Eli Mod - D56] (Eterna round: R97, puzzle: Sensor, turn-off variant 1)	17.7 nM	17.2 nM	–	–
CUGUUUUUCGCAGGAUAUGCUCCUCCUUUAUUUGCAGAAGGGCGUUAAACAUGAGGAUCACCCAUGUAUGGUAAUGACAUUUUC [JR_ExcNG1_Sub063] (Eterna round: R96, puzzle: Exclusion NG 1)	135 nM	29.6 nM	–	apparent KD of MS2 coat protein [1]: 20.8 nM
CUUAAACAUGAGGAUCACCCAUGUCAGGAUAUGAUACUAUGUACUUCGGUACAUAGUAUCAGAAGGGAUAUAAA [Ex1-3: 65] (puzzle: Exclusion 1)	–	–	39.3 nM	–
CUUAGACAUGAGGAUCACCCAUGUGAGGAUAUGAUGCGAUCGUGCUGACAUGAUCGCAUCAGAAGGCACAUAUG [JL-ex1-01 Hyphema Mod2] (Eterna round: R96, puzzle: Exclusion 1)	242 nM	115 nM	–	apparent KD of MS2 coat protein [1]: 101 nM
CUUAGACAUGAGGAUCACCCAUGUGAGGAUAUGAUGCGAUCGUGCUGACAUGAUCGCAUCAGAAGGCACAUAUG [JL-ex1-01 Hyphema Mod2] (puzzle: Exclusion 1)	–	–	120 nM	–
CUUAUGGUCCAUACCUAGAACAUGAGGAUCACCCAUGUAAUACAUGACACCUACCUUAAGCACAGCUCGUCUUGUAG [Eternabot (Original) Solution 30] (Eterna round: R97, puzzle: Sensor, turn-off variant 1)	48.9 nM	57 nM	–	–
CUUCCCAAAGGAUAUCACGGUAAUAACAUGAGGAUCACCCAUGUGCAAUUCGUGUCCCUGUGAGAAGGUUGAGAAG [Anlabe] (puzzle: Exclusion 5)	–	–	11.1 nM	apparent KD of MS2 coat protein [3]: 17.9 nM; apparent KD of MS2 coat protein [4]: 12 nM
CUUCUCAAAGGAUAUCACGGUAAUAACAUGAGGAUCACCCAUGUGCAAUUCGUGUCCCUGUGAGAAGGUUGAGAAG [Remaor] (Eterna round: R96, puzzle: Exclusion 5)	19.5 nM	13.2 nM	–	apparent KD of MS2 coat protein [1]: 11.1 nM
CUUCUCAAAGGAUAUCACGGUAAUAACAUGAGGAUCACCCAUGUGCAAUUCGUGUCCCUGUGAGAAGGUUGAGAAG [Remaor] (puzzle: Exclusion 5)	–	–	10.5 nM	–
CUUGUGCAACAGGAUAUGUGCACGGCAGUAGCAACAGAAGGGUUGACAUGAGGAUCACCCAUGUUUACAAAGCG [Eternabot (Original) Solution 35] (Eterna round: R97, puzzle: Exclusion 6)	132 nM	137 nM	–	–
CUUGUGUGAGGAUAUGACAAUGGUAUCUUCGGAUACCAUUGUCAGAAGGUACAUGAGGAUCACCCAUGUAGAUC [Exclusion 4 - Mod Brourd Ex 4-3: 20] (puzzle: Exclusion 4)	–	–	72 nM	–
CUUUCGUCUGUGGGUGGUGACAUGAGGAUCACCCAUGUUUUGCUCGUCUUGUGCCGGGCCCGGCGCCCGGGCCCGGC [-38.7, -62.6, A 8%] (Eterna round: R97, puzzle: Sensor, turn-off variant 1)	861 nM	992 nM	–	–
CUUUCGUGAGGAUAUCAGUAGUAAAAAUAUAAAAUUACUACUGAGAAGGCACAUGAGGAUCACCCAUGUUCCUC [salish99_ex3_r3_100] (puzzle: Exclusion 4)	–	–	24.1 nM	–
CUUUCGUGAGGAUAUCAGUAGUAAAUAAAUAAAAUUACUACUGAGAAGGCACAUGAGGAUCACCCAUGUUCCUC [salish99_ex3_r3_096] (puzzle: Exclusion 4)	–	–	23.5 nM	–
CUUUCGUGAGGAUAUGUGGCUUCGAAAGUGAGAUCGAGGCUACAGAAGGCACAUGAGGAUCACCCAUGUUCCUC [salish99_ex4_r4_214] (Eterna round: R97, puzzle: Exclusion 4)	371 nM	28.2 nM	–	–
CUUUCUUGCAAGGAUAUGCAAUUUAUUAUUUAUGCAGAAGGUGCUACAUGAGGAUCACCCAUGUUUCUGGGUUU [JR_E6_Sub045] (puzzle: Exclusion 6)	–	–	124 nM	–
CUUUUGUGAGGAUAUCAGUAGUAAAAUAAUAAAAUAACUACUGAGAAGGCACAUGAGGAUCACCCAUGUUCCUC [Mat - Exclusion 4 - Mod of Salish - D73] (puzzle: Exclusion 4)	–	–	33.9 nM	–
CUUUUGUGAGGAUAUCAGUAGUAAUACAAUAGUAUUAUUACUGAGAAGGCACAUGAGGAUCACCCAUGUUCCUC [Ex4 344 Omei mod 7] (puzzle: Exclusion 4)	–	–	38.6 nM	–

Sequence	apparent KD of MS2 coat protein (input ligand: FMN 200 uM)	apparent KD of MS2 coat protein (input ligand: none)	apparent KD of MS2 coat protein [2]	also measured
CUUUUGUGAGGAUAUCAGUGGUAAAACAAUAGUAUUACUACUGAGAAGGCACAUGAGGAUCACCCAUGUUCCUC [Mat - Exclusion 4 - Mod of Omei - D85] (puzzle: Exclusion 4)	–	–	42.7 nM	–
CUUUUGUGAGGAUAUGGUAACGUUUACAUGAGGAUCACCCAUGUUUCAUGGGACUUGAGACUAGAAGGCACUAACG [JR_Ex5_Sub027] (Eterna round: R97, puzzle: Exclusion 5)	516 nM	823 nM	–	–
CUUUUGUGAGGAUAUUCGUAGUAGGGUCAUGGUACUAUUACGGAGAAGGCACAUGAGGAUCACCCAUGUACCUU [EX4 #44] (Eterna round: R97, puzzle: Exclusion 4)	25 nM	15.8 nM	–	–
GAAAAACAUGAGGAUCACCCAUGUAAGGAUAUGCUGAAAAAACACUGGAAACAGUGCAGCAGAAGGUACAAAAG [Mat - Exclusion 1 - Eli mod - D100] (Eterna round: R96, puzzle: Exclusion 1)	–	–	–	apparent KD of MS2 coat protein [1]: 47.6 nM
GAAAACGCAGAGGAUAUAUCAGAUCAAAGCUGCAUAGAAGGCUGCACAUGAGGAUCACCCAUGUGGUCUUUAAU [Mat - Exclusion 6 - JL Mod - D1] (Eterna round: R97, puzzle: Exclusion 6)	237 nM	24 nM	–	–
GAAAAGGCAGAGGAUAUUUCAGGUCAAAGCUGCAAAGAAGGCUGCACAUGAGGAUCACCCAUGUGGUCUUAAAA [Mod of Quesina 6 - Jieux - Exclusion 6] (Eterna round: R97, puzzle: Exclusion 6)	150 nM	22.6 nM	–	–
GAAAAGGUAGAGGAUAUUUCAGAUCAAAGCUGCAAAGAAGGCUGCACAUGAGGAUCACCCAUGUGGUCUUCAAA [Mod of Quesina 9 - Jieux - Exclusion 6] (Eterna round: R97, puzzle: Exclusion 6)	121 nM	19.7 nM	–	–
GAAAAGGUAGGAUAUACGAAAAAAAAGGGUAGAAAAAAAACACAUGAGGAUCACCCAUGUAGAAGGACCAAAAC [salish99_ex2_r3_052] (puzzle: Exclusion 2)	–	–	35.3 nM	apparent KD of MS2 coat protein [3]: 94.7 nM; apparent KD of MS2 coat protein [4]: 27.8 nM
GAAAAGGUAGGAUAUACGAAAAAAAAGGGUAGAAAAAAAAGACAUGAGGAUCACCCAUGUAGAAGGACCAAAAG [salish99_ex2_r3_061] (puzzle: Exclusion 2)	–	–	36.5 nM	apparent KD of MS2 coat protein [3]: 76.6 nM; apparent KD of MS2 coat protein [4]: 27.1 nM
GAAAAGGUAGGAUAUACGAAAAAAAAGGUUAGAAAAAAAACACAUGAGGAUCACCCAUGUAGAAGGACCAAAAG [salish99_ex2_r3_067] (puzzle: Exclusion 2)	–	–	21.8 nM	apparent KD of MS2 coat protein [3]: 17.4 nM; apparent KD of MS2 coat protein [4]: 17.8 nM
GAAAAGGUAGGAUAUACGAGAAGAAAGGGUAGAGAAGAAACACAUGAGGAUCACCCAUGUAGAAGGACCAAAAG [salish99_ex2_r3_099] (puzzle: Exclusion 2)	–	–	29.9 nM	apparent KD of MS2 coat protein [3]: 66.7 nM; apparent KD of MS2 coat protein [4]: 29.9 nM
GAAAAGGUAGGAUAUACUAAAAAAAAGGGUAGAAAAAAAACACAUGAGGAUCACCCAUGUAGAAGGACCAAAAG [salish99_ex2_r3_058] (puzzle: Exclusion 2)	–	–	31.8 nM	apparent KD of MS2 coat protein [3]: 48.2 nM; apparent KD of MS2 coat protein [4]: 20.8 nM
GAAACCAGAGGAUAUGCGAAUAAAUAAAACUUUUUUUUUUAACAUGAGGAUCACCCAUGUAGAAGGCUGCAAAG [Ex2 #35] (Eterna round: R97, puzzle: Exclusion 2)	32 nM	31 nM	–	–
GAAAGACAUGAGGAUCACCCAUGUCAGGAUAUGAUGCCAGCGUAGCUAGUAGGUUUUGUCAGAAGGGACGGGUU [Eternabot (L1) Solution 70] (Eterna round: R97, puzzle: Exclusion 1)	32.2 nM	27.4 nM	–	–
GAAAUGGUAGGAUAUACGAAAAAAAAGGGUAGAAAAAAAACACAUGAGGAUCACCCAUGUAGAAGGACCAAAAG [salish99_ex2_r3_088] (puzzle: Exclusion 2)	–	–	31.9 nM	apparent KD of MS2 coat protein [3]: 71.4 nM; apparent KD of MS2 coat protein [4]: 28.4 nM
GAACUAAGGCAAAGCUUUAGUCGUACAUGAGGAUCACCCAUGUAGGAUAUGGUAGGCAAAGCAUACCAGAAGGACAGAGUGAUC [Mat - Exclusion NG 3 - Mod of JL - D62] (Eterna round: R96, puzzle: Exclusion NG 3)	387 nM	220 nM	–	apparent KD of MS2 coat protein [1]: 363 nM
GAAGAAAAGGCAGGAUAUCAGAAACACAUGAUAAGGAGAUGCAACAUGAGGAUCACCCAUGUAAAUGAGAAGGGCCGCCCUUCC [Arbiis] (Eterna round: R96, puzzle: Exclusion NG 2)	–	–	–	apparent KD of MS2 coat protein [1]: 28 nM
GAAGAUCGAGUUAGGAUAUGAUUACUAUCCGAAAAUCAGAAGGAACUUGAGGAUCACCCAAGUAAAGAAGAAAU [JR_BMEx4_Sub051] (Eterna round: R97, puzzle: Brourd's mod of Exclusion 4)	22.9 nM	16.5 nM	–	–
